Laboratory results as given in the supplement of paper PMC12338614.
± gives the uncertainty stated by the source.

B1: library; numbered along this chain (parent)
chain: MEVVDPQQLGMFTEGELMSVGMDTFIHRIDSTEVIYQPRRKRAKLIGKYLMGDLLGEGSYGKVKEVLDSETLCRRAVKILKKKKLRRIPNGEANVKKEIQLLRRLRHKNVIQLVDVLYNEEKQKMYMVMEYCVCGMQEMLDSVPEKRFPVCQAHGYFCQLIDGLEYLHSQGIVHKDIKPGNLLLTTGGTLKISDLGVAEALHPFAADDTCRTSQGSPAFQPPEIANGLDTFSGFKVDIWSAGVTLYNITTGLYPFEGDNIYKLFENIGKGSYAIPGDCGPPLSDLLKGMLEYEPAKRFSIRQIRQHSWFRKKHPPAEAPVPIPPSPDTKDRWRSMTVVPYLEDLHGADEDEDLFDIEDDIIYTQDFTVPGQVPEEEASHNGQRRGLPKAVCMNGTEAAQLSTKSRAEGRAPNPARKACSASSKIRRLSACKQQ

Variants of: B1
Test: STK11 functional score (HeLa growth suppression), rescaled enrichment; synonymous median = 1, nonsense median = 0 (normalised score)
Settings: with HeLa; variant type: missense
Procedure, shortened: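 The values are functional scores: wild-type-corrected log ratios of post- versus pre-selection abundance, rescaled to synonymous and nonsense medians, merged over codons and replicate transfections, and carrying bootstrapped error. They derive from codon-randomised (POPCode), codon-optimised STK11 libraries that Bxb1 integrated at an AAVS1 landing pad in HeLa, with three transfections for each of three regions. Sequencing of tiled gDNA amplicons ran on NextSeq, at ~2 million reads per tile.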
E357H gave an STK11 functional score of 1.6 ± 0.17.
Variant E357Q has an STK11 functional score of 1.13 ± 0.47.
With M127P the STK11 functional score was 0.82 ± 0.4.
For K41V, the STK11 functional score was 1.36 ± 0.19.
K41T was tested, and the STK11 functional score was 1.27 ± 0.49.
N266W showed an STK11 functional score of 0.574 ± 0.1.
I248D was tested, and the STK11 functional score was 0.0228 ± 0.096.
With R40S the STK11 functional score was 0.887 ± 0.15.
R40L showed an STK11 functional score of 0.804 ± 0.16.
R40P was tested, and the STK11 functional score was 1.17 ± 0.38.
Variant T32K has an STK11 functional score of 0.829 ± 0.21.
V390F showed an STK11 functional score of 1.18 ± 0.4.
L72I was tested, and the STK11 functional score was 1.19 ± 0.24.
Variant V4R has an STK11 functional score of 1.32 ± 0.2.
Work on V4F yielded an STK11 functional score of 0.964 ± 0.46.
Variant F298G has an STK11 functional score of -0.228 ± 0.09.
Variant R425P has an STK11 functional score of 1.51 ± 0.24.
S428Y gave an STK11 functional score of 1.39 ± 0.16.
In the case of Y156C, the STK11 functional score is reported as 0.324 ± 0.12.
With T209Q the STK11 functional score was 1.5 ± 0.5.
Variant T209M has an STK11 functional score of 1.43 ± 0.33.
T209R was tested, and the STK11 functional score was 1.27 ± 0.2.
For T209P, the STK11 functional score was 1.27 ± 0.3.
Work on L140E yielded an STK11 functional score of -0.3 ± 0.087.
In the case of K48V, the STK11 functional score is reported as 1.24 ± 0.42.
K48T gave an STK11 functional score of 1.59 ± 0.29.
K48D showed an STK11 functional score of 1.34 ± 0.081.
With Q371W the STK11 functional score was 0.748 ± 0.14.
Q371C gave an STK11 functional score of 1.36 ± 0.37.
Work on Q371I yielded an STK11 functional score of 1.52 ± 0.3.
With G385K the STK11 functional score was 1.6 ± 0.27.
In the case of R384I, the STK11 functional score is reported as 1.06 ± 0.47.
With K108V the STK11 functional score was 0.939 ± 0.085.
In the case of P326M, the STK11 functional score is reported as 1.45 ± 0.12.
Variant Q302E has an STK11 functional score of 0.957 ± 0.21.
In the case of R301C, the STK11 functional score is reported as 1.17 ± 0.38.
In the case of R301Y, the STK11 functional score is reported as 1.6 ± 0.3.
V77S gave an STK11 functional score of 0.46 ± 0.12.
For P149N, the STK11 functional score was 1.38 ± 0.22.
P149M showed an STK11 functional score of 1.02 ± 0.2.
Work on P149L yielded an STK11 functional score of 0.561 ± 0.1.
W239S was tested, and the STK11 functional score was 0.00373 ± 0.1.
M11V gave an STK11 functional score of 1.55 ± 0.48.
With Q37I the STK11 functional score was 1.65 ± 0.17.
Q37T gave an STK11 functional score of 1.69 ± 0.12.
R297A was tested, and the STK11 functional score was 0.147 ± 0.078.
With I260M the STK11 functional score was 1.32 ± 0.26.
Variant E349N has an STK11 functional score of 1.48 ± 0.19.
A410F was tested, and the STK11 functional score was 1.4 ± 0.2.
With V368I the STK11 functional score was 1.53 ± 0.16.
In the case of V368G, the STK11 functional score is reported as 1.38 ± 0.2.
With L113W the STK11 functional score was 0.222 ± 0.11.
For L113Y, the STK11 functional score was 1.67 ± 0.24.
Variant R147E has an STK11 functional score of -0.0954 ± 0.2.
R147P was tested, and the STK11 functional score was 0.188 ± 0.08.
Work on R147S yielded an STK11 functional score of 0.855 ± 0.32.
For R147D, the STK11 functional score was -0.33 ± 0.084.
In the case of E57G, the STK11 functional score is reported as 1.08 ± 0.35.
Work on K312N yielded an STK11 functional score of 1.58 ± 0.43.
For K312V, the STK11 functional score was 1.27 ± 0.11.
Variant G58R has an STK11 functional score of -0.318 ± 0.1.
R104Y showed an STK11 functional score of 0.684 ± 0.14.
R104D gave an STK11 functional score of 0.685 ± 0.19.
E145N showed an STK11 functional score of 1.46 ± 0.49.
With E145H the STK11 functional score was 1.31 ± 0.2.
Variant E145F has an STK11 functional score of 0.968 ± 0.087.
E351Y gave an STK11 functional score of 1.23 ± 0.39.
E351F gave an STK11 functional score of 1.19 ± 0.47.
Variant E120P has an STK11 functional score of 1.42 ± 0.28.
S419H was tested, and the STK11 functional score was 1.63 ± 0.18.
Variant S419V has an STK11 functional score of 0.892 ± 0.23.
L285P was tested, and the STK11 functional score was -0.13 ± 0.21.
K403G was tested, and the STK11 functional score was 1.46 ± 0.23.
K403V gave an STK11 functional score of 0.598 ± 0.14.
Work on P339G yielded an STK11 functional score of 0.73 ± 0.27.
For D176E, the STK11 functional score was 0.211 ± 0.1.
Variant D176R has an STK11 functional score of -0.0226 ± 0.15.
L400S gave an STK11 functional score of 1.07 ± 0.21.
For L400H, the STK11 functional score was 1.42 ± 0.29.
Variant G10L has an STK11 functional score of 1.63 ± 0.21.
I35A was tested, and the STK11 functional score was 1.43 ± 0.11.
R415L showed an STK11 functional score of 1.61 ± 0.12.
T363A showed an STK11 functional score of 0.828 ± 0.21.
In the case of E396I, the STK11 functional score is reported as 1.57 ± 0.28.
R331A was tested, and the STK11 functional score was 0.000385 ± 0.16.
Work on R331C yielded an STK11 functional score of 1.38 ± 0.24.
R331V was tested, and the STK11 functional score was 1.13 ± 0.57.
In the case of T13A, the STK11 functional score is reported as 1.5 ± 0.23.
Variant T13L has an STK11 functional score of 0.906 ± 0.11.
Work on N119R yielded an STK11 functional score of 1.26 ± 0.17.
Work on I88V yielded an STK11 functional score of 0.87 ± 0.1.
With Y272C the STK11 functional score was 1.13 ± 0.71.
In the case of Q432D, the STK11 functional score is reported as 1.46 ± 0.21.
In the case of A295S, the STK11 functional score is reported as 1.44 ± 0.16.
Variant G270C has an STK11 functional score of 1.41 ± 0.31.
Work on G270S yielded an STK11 functional score of 1.47 ± 0.17.
Work on L55D yielded an STK11 functional score of 1.31 ± 0.68.
A417D gave an STK11 functional score of 1.41 ± 0.36.
P324G was tested, and the STK11 functional score was 1.36 ± 0.15.
With M289L the STK11 functional score was 0.831 ± 0.11.
Work on I79W yielded an STK11 functional score of -0.0803 ± 0.077.
E199H showed an STK11 functional score of 1.39 ± 0.18.
E199L was tested, and the STK11 functional score was 0.971 ± 0.12.
Work on E199C yielded an STK11 functional score of 1.38 ± 0.23.
Variant K287P has an STK11 functional score of 0.105 ± 0.28.
Variant K287T has an STK11 functional score of 1.25 ± 0.2.
Variant L101Y has an STK11 functional score of 1.21 ± 0.079.
For S31A, the STK11 functional score was 1.44 ± 0.17.
Variant S31Q has an STK11 functional score of 1.37 ± 0.39.
S31Y gave an STK11 functional score of 1.36 ± 0.18.
For S31H, the STK11 functional score was -0.108 ± 0.4.
P369C gave an STK11 functional score of 1.31 ± 0.39.
P369I gave an STK11 functional score of 1.21 ± 0.27.
For P369Q, the STK11 functional score was 1.43 ± 0.23.
A429I showed an STK11 functional score of 1.63 ± 0.27.
Variant A429T has an STK11 functional score of 0.896 ± 0.4.
With R211E the STK11 functional score was 1.53 ± 0.29.
R106T was tested, and the STK11 functional score was 1.69 ± 0.18.
V143G was tested, and the STK11 functional score was 1.33 ± 0.077.
In the case of V143D, the STK11 functional score is reported as 1.46 ± 0.33.
V143R showed an STK11 functional score of 1.29 ± 0.22.
In the case of S283I, the STK11 functional score is reported as 0.942 ± 0.12.
V372E was tested, and the STK11 functional score was 1.23 ± 0.38.
V372G showed an STK11 functional score of 1.09 ± 0.47.
In the case of V372F, the STK11 functional score is reported as 1.12 ± 0.35.
Q123L gave an STK11 functional score of 0.679 ± 0.16.
For T250I, the STK11 functional score was 1.35 ± 0.2.
T250W showed an STK11 functional score of 1.48 ± 0.098.
A198L gave an STK11 functional score of 1.13 ± 0.32.
G408T was tested, and the STK11 functional score was 1.61 ± 0.15.
G408L gave an STK11 functional score of 1.59 ± 0.26.
In the case of A397H, the STK11 functional score is reported as 1.64 ± 0.3.
For M335K, the STK11 functional score was 1.03 ± 0.7.
For S307F, the STK11 functional score was 1.38 ± 0.1.
In the case of G215C, the STK11 functional score is reported as 1.06 ± 0.2.
For C418T, the STK11 functional score was 1.58 ± 0.15.
Work on T336R yielded an STK11 functional score of 1.54 ± 0.28.
Work on I322A yielded an STK11 functional score of 1.53 ± 0.16.
Work on I322L yielded an STK11 functional score of 0.886 ± 0.078.
K83N was tested, and the STK11 functional score was 1.3 ± 0.39.
Work on S59R yielded an STK11 functional score of 1.5 ± 0.31.
Variant S59T has an STK11 functional score of 1.32 ± 0.64.
Work on Y126S yielded an STK11 functional score of 0.6 ± 0.1.
With I360V the STK11 functional score was 1.49 ± 0.28.
Variant Q112F has an STK11 functional score of 1.11 ± 0.18.
With K191G the STK11 functional score was 0.729 ± 0.12.
For A377Q, the STK11 functional score was 1.59 ± 0.23.
Q214C was tested, and the STK11 functional score was 0.896 ± 0.11.
In the case of Q214D, the STK11 functional score is reported as 1.33 ± 0.23.
Variant P144V has an STK11 functional score of 0.879 ± 0.22.
H379R was tested, and the STK11 functional score was 1.36 ± 0.18.
Q305S showed an STK11 functional score of 0.954 ± 0.59.
In the case of P280Q, the STK11 functional score is reported as 1.36 ± 0.4.
In the case of A43I, the STK11 functional score is reported as 1.18 ± 0.48.
Work on Q382A yielded an STK11 functional score of 1.38 ± 0.47.
For Q170L, the STK11 functional score was 0.967 ± 0.15.
With Q170A the STK11 functional score was 0.916 ± 0.14.
R426S gave an STK11 functional score of 1.5 ± 0.26.
E265V gave an STK11 functional score of 1.41 ± 0.37.
E265C gave an STK11 functional score of 1.67 ± 0.28.
E265D was tested, and the STK11 functional score was 1.31 ± 0.49.
For E265S, the STK11 functional score was 1.49 ± 0.32.
Work on T367S yielded an STK11 functional score of 1.51 ± 0.24.
T367F was tested, and the STK11 functional score was 1.36 ± 0.18.
R304I showed an STK11 functional score of 0.364 ± 0.3.
Work on V34D yielded an STK11 functional score of 0.585 ± 0.37.
S334P was tested, and the STK11 functional score was 1.43 ± 0.18.
